According to patent US12448423 (Xencor, dated 2025):

Molecular target: T1, HIS-tagged human NKG2D (human, UniProt P26718 73-216, limits assumed)
T1 construct: Captured on HIS1K biosensors; not shown: HIS tag
T1 sequence (looked up): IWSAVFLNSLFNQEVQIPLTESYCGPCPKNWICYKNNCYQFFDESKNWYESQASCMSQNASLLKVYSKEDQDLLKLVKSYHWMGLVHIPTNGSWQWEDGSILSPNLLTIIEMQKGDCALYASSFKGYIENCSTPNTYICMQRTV
Experiment: Octet (BLI): His-tagged human NKG2D captured on HIS1K biosensors, dipped into 100 nM bivalent mAb

B1: XENP27593 (antibody, human IgG1, kappa, V domains shown)
VH: QVQLQESGPGLVAPSQSLSITCTVSGFSLTSYGVHWIRQPPGKGLEWLGVIWAGGSTNYNSALMSRLSISKDNSKSQVFLKMNSLQIDDTAMYYCARGGYEGAAWFGYWGQGTTVTVSS
VL: DIQLTQSPAILSASPGEKVTMTCRASSSVSYMHWYQQKPGSSPKPWIYATSNLASGVPARFSGSGSGTSYSLTISRVEAEDAATYYCQQWNSNPLTFGAGTKLEIKR
notes: bivalent anti-NKG2D mAb, IgG1 with ablation variants; also called 6H7E7[NKG2D]_H0L0_IgG1_PVA_/S267K
Kd: ≤ 0.001 nM
koff: ≤ 1e-07 s⁻¹
kon: 231000 M⁻¹ s⁻¹

B2: XENP27591 (antibody, human IgG1, kappa, V domains shown)
VH: QVQLQQSGPELVRPGASVKLSCKASGYTFTSYWMNWVQQRPEQGLEWIGRIDPYDSETHYNQKFKDKAILTVDKSASTAYMQLSSLTSEDSAVYYCAKMGDYSFDYWGQGTTVTVSS
VL: DIQLTQSPASLSASVGETVTITCRASGNIHNYLAWYQQKQGKSPQVLVYNAKTLADGVPSRFSGSGSGTQYSLKINSLQPEDFGSYYCQHFWSTTWTFGGGTKLEIKR
notes: bivalent anti-NKG2D mAb, IgG1 with ablation variants; also called 11B2D10[NKG2D]_H0L0_IgG1_PVA_/S267K
Kd: 0.547 nM
koff: 0.000792 s⁻¹
kon: 1.45e+06 M⁻¹ s⁻¹

B3: XENP27592 (antibody, human IgG1, kappa, V domains shown)
VH: QVQLQQSGPGLVQPSQSLSITCTVSGFSLTIYGVHWVRQSPGKGLEWLGVIWSGGSTDYNAAFISRLSISKDNSKRQVFFKMSSLQANDTAIYYCSRKSHDGYYGVMDYWGQGTTVTVSS
VL: DIQLTQSPAILSVSPGERVSFSCRASQSIGTSIHWYQQRTNGSPRLLIKYASESISGIPSRFSGSGSGTDFTLSINGVESEDIADYYCQQSNTWPLTFGAGTKLEIKR
notes: bivalent anti-NKG2D mAb, IgG1 with ablation variants; also called 6E5A7[NKG2D]_H0L0_IgG1_PVA_/S267K
Kd: ≤ 0.001 nM
koff: ≤ 1e-07 s⁻¹
kon: 489000 M⁻¹ s⁻¹

B4: XENP27597 (antibody, human IgG1, lambda, V domains shown)
VH: EVQLVESGGGVVQPGGSLRLSCAASGFTFSSYGMHWVRQAPGKGLEWVAFIRYDGSNKYYADSVKGRFTISRDNSKNTKYLQMNSLRAEDTAVYYCAKDRFGYYLDYWGQGTLVTVSS
VL: QPVLTQPSSVSVAPGETARIPCGGDDIETKSVHWYQQKPGQAPVLVIYDDDDRPSGIPERFFGSNSGNTATLSISRVEAGDEADYYCQVWDDNNDEWVFGGGTQLTVLG
notes: bivalent anti-NKG2D mAb, IgG1 with ablation variants; also called KYK-1.0[NKG2D]_H1L1_IgG1_PVA_/S267K
Kd: 0.613 nM
koff: 0.00113 s⁻¹
kon: 1.85e+06 M⁻¹ s⁻¹

B5: XENP27596 (antibody, human IgG1, kappa, V domains shown)
VH: QVQLVQSGAEVKKPGASVKVSCKASGYTFTNYWMHWVRQAPGQGLEWMGEIDPSDIYTNYAQKFQGRVTMTRDTSTSTVYMELSSLRSEDTAVYYCARGIYDGYYVYGMDYWGQGTTVTVSS
VL: YIQMTQSPSSLSASVGDRVTITCRSSQDISNYLNWYQQKPGKAPKLLIYYTSRLHSGVPSRFSGSGSGTDFTFTISSLQPEDIATYYCQQGKTLPRTFGGGTKVEIKR
notes: bivalent anti-NKG2D mAb, IgG1 with ablation variants; also called mAb D[NKG2D]_H1L1_IgG1_PVA_/S267K
Kd: ≤ 0.001 nM
koff: ≤ 1e-07 s⁻¹
kon: 698000 M⁻¹ s⁻¹

B6: XENP27594 (antibody, V domains shown)
VH: EVQLVESGGGLVKPGGSLRLSCAASGFTFSSYSMNWVRQAPGKGLEWVSSITSSSSYIYYADSVKGRFTISRDNAKNSLYLQMNSLRAEDTAVYYCARDRRYFDWFPLDYRGQGTLVTVSS
VL: DIQMTQSPSSLSASVGDRVTITCRASQGISSWLAWYQQKPEKAPKSLIYAASSLQSGVPSRFSGSGSGTDFTLTISSLQPEDFATYYCQQYNGYPYTFGQGTKLEIKR
notes: bivalent anti-NKG2D mAb, IgG1 with ablation variants; also called mAb E[NKG2D]_H1L1_IgG1_PVA_/S267K
Kd: 0.343 nM
koff: 0.000387 s⁻¹
kon: 1.13e+06 M⁻¹ s⁻¹

B7: XENP27614 (antibody, human IgG1, kappa, V domains shown)
VH: QVQLQESGPGLVKPSETLSLTCTVSGFSLTSYGVHWIRQPPGKGLEWIGVIWAGGSTNYNPSLKSRVTISKDNSKSQVSLKLSSVTAADTAVYYCARGGYEGAAWFGYWGQGTLVTVSS
VL: DIQLTQSPATLSLSPGERATLSCRASSSVSYMHWYQQKPGQSPRPLIYATSNLASGVPARFSGSGSGTDYTLTISSLEPEDFAVYYCQQWNSNPLTFGAGTKVEIKR
notes: humanized bivalent anti-NKG2D mAb, IgG1 with ablation variants; also called mAb A[NKG2D]_H2L2_IgG1_PVA_/S267K
Kd: ≤ 0.001 nM
koff: ≤ 1e-07 s⁻¹
kon: 200000 M⁻¹ s⁻¹

B8: XENP27613 (antibody, human IgG1, kappa, V domains shown)
VH: QVQLQESGPGLVKPSETLSLTCTVSGFSLTSYGVHWIRQPPGKGLEWIGVIWAGGSTNYNPSLKSRVTISKDNSKSQVSLKLSSVTAADTAVYYCARGGYEGAAWFGYWGQGTLVTVSS
VL: DIQLTQSPSSLSASVGDRVTITCRASSSVSYMHWYQQKPGKSPKPLIYATSNLASGVPARFSGSGSGTDYTLTISSLQPEDFATYYCQQWNSNPLTFGAGTKVEIKR
notes: humanized bivalent anti-NKG2D mAb, IgG1 with ablation variants; also called mAb A[NKG2D]_H2L1_IgG1_PVA_/S267K
Kd: ≤ 0.001 nM
koff: ≤ 1e-07 s⁻¹
kon: 254000 M⁻¹ s⁻¹

B9: XENP27612 (antibody, human IgG1, kappa, V domains shown)
VH: QVQLVQSGAEVKKPGASVKVSCKVSGFSLTSYGVHWIRQAPGQGLEWMGVIWAGGSTNYNSKFQGRVTMTKDNSKSTVYMELSSLRSEDTAVYYCARGGYEGAAWFGYWGQGTLVTVSS
VL: DIQLTQSPATLSLSPGERATLSCRASSSVSYMHWYQQKPGQSPRPLIYATSNLASGVPARFSGSGSGTDYTLTISSLEPEDFAVYYCQQWNSNPLTFGAGTKVEIKR
notes: humanized bivalent anti-NKG2D mAb, IgG1 with ablation variants; also called mAb A[NKG2D]_H1L2_IgG1_PVA_/S267K
Kd: ≤ 0.001 nM
koff: ≤ 1e-07 s⁻¹
kon: 224000 M⁻¹ s⁻¹

B10: XENP27611 (antibody, human IgG1, kappa, V domains shown)
VH: QVQLVQSGAEVKKPGASVKVSCKVSGFSLTSYGVHWIRQAPGQGLEWMGVIWAGGSTNYNSKFQGRVTMTKDNSKSTVYMELSSLRSEDTAVYYCARGGYEGAAWFGYWGQGTLVTVSS
VL: DIQLTQSPSSLSASVGDRVTITCRASSSVSYMHWYQQKPGKSPKPLIYATSNLASGVPARFSGSGSGTDYTLTISSLQPEDFATYYCQQWNSNPLTFGAGTKVEIKR
notes: humanized bivalent anti-NKG2D mAb, IgG1 with ablation variants; also called mAb A[NKG2D]_H1L1_IgG1_PVA_/S267K
Kd: ≤ 0.001 nM
koff: ≤ 1e-07 s⁻¹
kon: 228000 M⁻¹ s⁻¹

B11: XENP27598 (antibody, human IgG1, kappa, V domains shown)
VH: QVQLVQSGAEVKKPGASVKVSCKASGYTFTSYWMNWVRQAPGQGLEWMGRIDPYDSETHYNQKFQGRVTMTVDKSTSTAYMELSSLRSEDTAVYYCAKMGDYSFDYWGQGTLVTVSS
VL: DIQLTQSPSSLSASVGDRVTITCRASGNIHNYLAWYQQKPGKSPKVLVYNAKTLADGVPSRFSGSGSGTDYTLTISSLQPEDFATYYCQHFWSTTWTFGGGTKVEIKR
notes: humanized bivalent anti-NKG2D mAb, IgG1 with ablation variants; also called mAb B[NKG2D]_H1L1_IgG1_PVA_/S267K
Kd: 0.679 nM
koff: 0.000746 s⁻¹
kon: 1.1e+06 M⁻¹ s⁻¹

B12: XENP27599 (antibody, human IgG1, kappa, V domains shown)
VH: QVQLVQSGAEVKKPGASVKVSCKASGYTFTSYWMNWVRQAPGQGLEWMGRIDPYDSETHYNQKFQGRVTMTVDKSTSTAYMELSSLRSEDTAVYYCAKMGDYSFDYWGQGTLVTVSS
VL: DIQLTQSPSSLSASVGDRVTITCRASGNIHNYLAWYQQKPGKSPKVLVYNAKTLADGVPSRFSGSGSGTDYTLTISSLQPEDFATYYCQHFWSTPWTFGGGTKVEIKR
notes: humanized bivalent anti-NKG2D mAb, IgG1 with ablation variants; also called mAb B[NKG2D]_H1_L1.1_IgG1_PVA_/S267K
Kd: 3.5 nM
koff: 0.00169 s⁻¹
kon: 482000 M⁻¹ s⁻¹

B13: XENP27600 (antibody, human IgG1, kappa, V domains shown)
VH: QVQLVQSGAEVKKPGASVKVSCKASGYTFTSYWMNWVRQAPGQGLEWMGRIDPYDSETHYNQKFQGRVTMTVDKSTSTAYMELSSLRSEDTAVYYCAKMGDYSFDYWGQGTLVTVSS
VL: DIQLTQSPDSLAVSLGERATINCKASGNIHNYLAWYQQKPGQSPKVLVYNAKTLADGVPSRFSGSGSGTDYTLTISSLQAEDVAVYYCQHFWSTTWTFGGGTKVEIKR
notes: humanized bivalent anti-NKG2D mAb, IgG1 with ablation variants; also called mAb B[NKG2D]_H1L2_IgG1_PVA_/S267K
Kd: 0.595 nM
koff: 0.000666 s⁻¹
kon: 1.12e+06 M⁻¹ s⁻¹

B14: XENP27601 (antibody, human IgG1, kappa, V domains shown)
VH: EVQLVQSGAEVKKPGESLRISCKASGYTFTSYWMNWVRQMPGKGLEWMGRIDPYDSETHYNPSFQGHVTISVDKSISTAYLQWSSLKASDTAMYYCAKMGDYSFDYWGQGTLVTVSS
VL: DIQLTQSPSSLSASVGDRVTITCRASGNIHNYLAWYQQKPGKSPKVLVYNAKTLADGVPSRFSGSGSGTDYTLTISSLQPEDFATYYCQHFWSTTWTFGGGTKVEIKR
notes: humanized bivalent anti-NKG2D mAb, IgG1 with ablation variants; also called mAb B[NKG2D]_H2L1_IgG1_PVA_/S267K
Kd: 0.894 nM
koff: 0.0011 s⁻¹
kon: 1.23e+06 M⁻¹ s⁻¹
